The values that follow come from US20090263894A1 (AbbVie / Abbott, published 2009).

Assay [1] deals with T1, NGAL rAg R109A displayed on yeast (human, UniProt P80188 21-198).
T1 construct: Yeast display AGA2 fusion as m5
T1 chain: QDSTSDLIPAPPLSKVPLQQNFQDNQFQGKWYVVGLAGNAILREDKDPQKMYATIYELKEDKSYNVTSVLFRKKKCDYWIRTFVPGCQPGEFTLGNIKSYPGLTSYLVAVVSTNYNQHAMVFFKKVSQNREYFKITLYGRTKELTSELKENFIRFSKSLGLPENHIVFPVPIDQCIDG
In words: flow cytometry, mAb titrated on yeast displaying NGAL; highest mAb concentration tested listed as KD. From the text:
(§1) The side chain of each of the NGAL rAg residues identified from the epitope selections was altered by site-directed mutagenesis to alanine to confirm the functional epitope (direct contact residues) of each NGAL mAb subclone.
(§2) For these experiments, observed fluorescence (F) was used to solve for KD using equation [1]. The KD derived from equation [1] one was then used in equation [2] to derive the change in Gibbs free binding energy upon alanine substitution. The KD is read from the abscissa of each of the curves at the inflection point.
(A flow cytometer gives signals particle by particle.)

Assay [2] deals with T2, NGAL rAg K15A displayed on yeast (human, UniProt P80188 21-198).
T2 construct: Yeast display AGA2 fusion as m5
T2 chain: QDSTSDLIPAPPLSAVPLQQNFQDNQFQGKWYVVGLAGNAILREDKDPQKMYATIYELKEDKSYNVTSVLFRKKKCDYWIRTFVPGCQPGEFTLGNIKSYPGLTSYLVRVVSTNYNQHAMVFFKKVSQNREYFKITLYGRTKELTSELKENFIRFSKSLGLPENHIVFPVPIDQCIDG
Described as above.
Description: as §1, §2

Assay [3] concerns the target T1, NGAL rAg R109A displayed on yeast. In words: flow cytometry, mAb titrated on yeast displaying NGAL; from the highest mAb concentration tested. The method, then:
as §1
(§3) The change in Gibbs free binding energy (ΔΔG_Ala-WT) was determined to assess the energetic impact of each alanine substitution for mAb binding. The change in Gibbs free binding energy upon alanine substitution was calculated using the following equation [2],
as §2

The target in assay [4] is T2, NGAL rAg K15A displayed on yeast. Described as above. The method, then:
as §1, §3, §2

B1: anti-NGAL monoclonal antibody 1-903-430 (antibody, V domains shown)
VH: KIQLVQSGPELKKPGETVKISCKASGYTFTNYGMNWVKQAPGKGLKWMGWININTGEPTYAEEFKGRFAFSLETSATTAFLQINNLKNEDTATYLCARDSYSGGFDYWGQGTIVTVSS
VL: DIVMTQSPSSLSVSAGEKVTLSCKSSQSLLISGDQKNYLAWYQQKPGQPPKLLIYGASTRDSGVPDRFTGSGSGADFTLTISSVQAEDLAVYYCQNDHSFPPTFGAGTKLELKR
Broadly, the Kd is the concentration at which binding is half-saturated. Lower therefore signals higher affinity. With B1, the dissociation constant (Kd) in assay [1] and in assay [2] was over 5 µM in each case. Besides, the “ΔKD (KD against KD of WT)” value in assay [3] and in assay [4] was over 24500 fold each time. Also, the “ΔΔG Ala-WT” value in assay [3] and in assay [4] was over 5.97 kcal/mol in each case.
